Source: the RNAGym collection of RNA variant scans (doi:10.7554/elife.80360)

B1: HDV Ribozyme (parent)
chain: GGCCGGCAUGGUCCCAGCCUCCUCGCUGGCGCCGGCUGGGCAACAUUCCGAGGGGACCGUCCCCUCGGUAAUGGCGAAUGGGACCCA

Variants of: B1
Assay: self-cleavage, relative activity (ratio to wild type); higher = more cleavage; co-transcriptional
Variant GGCCGGCAUGGUCCCAGCCUCCUCGCUGGCACCGCCUGGGCAACAUUCCGAGGGGACCGUCCCCUCGGUAAUGGCGAAUGGGACCCA has a self-cleavage of 0.
In the case of GGCCGGCAUGGUCCCAGCCUCCUCGCUGGCACCGUCUGGGCAACAUUCCGAGGGGACCGUCCCCUCGGUAAUGGCGAAUGGGACCCA, the self-cleavage is reported as 0.102.
GGCCGGCAUGGUCCCAGCCUCCUCGCUGGCCCCGGCUGGGCAACAUUGCGAGGGGACCGUCCCCUCGGUAAUGGCGAAUGGGACCCA gave a self-cleavage of 0.227.
Variant GGCCGGCAUGGUCCCAGCCUCCUCGCUGGCCCCGGCUGGGCAACAUUCCGGGGGGACCGUCCCCUCGGUAAUGGCGAAUGGGACCCA has a self-cleavage of 0.341.
Variant GGCCGGCAUGGUCCCAGCCUCCUCGCUGGCCCCGGCUGGGCAACAUUCCGCGGGGACCGUCCCCUCGGUAAUGGCGAAUGGGACCCA has a self-cleavage of 0.475.
With GGCCGGCAUGGUCCCAGCCUCCUCGCUGGCACCGGCUGGGCAACAUUCCGAGGGGACCGUCCCCUCGGUAAUGCCGAAUGGGACCCA the self-cleavage was 0.182.
GGCCGGCAUGGUCCCAGCCUCCUCGCUGGCCCCGGCUGGGCAACAUUCCGAGGGGACCGUCCCCUCGGUAAUGGCGGAUGGGACCCA showed a self-cleavage of 0.306.
Variant GGCCGGCAUGGUCCCAGCCUCCUCGCUGGCACCGGCUGGGCAACAUUCCGAGGGGACCGACCCCUCGGUAAUGGCGAAUGGGACCCA has a self-cleavage of 0.49.
With GGCCGGCAUGGUCCCAGCCUCCUCGCUGGCACCGGCUGGGCAACAUUCCGAGGGGACCGGCCCCUCGGUAAUGGCGAAUGGGACCCA the self-cleavage was 0.642.
GGCCGGCAUGGUCCCAGCCUCCUCGCUGGCACCGGCUGGGCAACAUUCCGAGGGGACCGUCCCCUCGGUAAUGGCGAAUGUGACCCA showed a self-cleavage of 0.126.
Variant GGCCGGCAUGGUCCCAGCCUCCUCGCUGGCACCGGCUGGGCAACAUUCCGAGGGGACCGUCCCCUCGGUAAUGGCGAAUGAGACCCA has a self-cleavage of 0.14.
In the case of GGCCGGCAUGGUCCCAGCCUCCUCGCUGGCACCGGCUGGGCAACAUUCCGAGAGGACCGUCCCCUCGGUAAUGGCGAAUGGGACCCA, the self-cleavage is reported as 0.487.
Variant GGCCGGCAUGGUCCCAGCCUCCUCGCUGGCACCGGCUGGGCAACAUUCCGAGGGGACCGUCCCCUCGGAAAUGGCGAAUGGGACCCA has a self-cleavage of 0.564.
In the case of GGCCGGCAUGGUCCCAGCCUCCUCGCUGGCACCGGCUGGGCAACAUUCCGAGGGGACCGUCCCCUCGGGAAUGGCGAAUGGGACCCA, the self-cleavage is reported as 0.284.
GGCCGGCAUGGUCCCAGCCUCCUCGCUGGCCCUGGCUGGGCAACAUUCCGAGGGGACCGUCCCCUCGGUAAUGGCGAAUGGGACCCA gave a self-cleavage of 0.123.
In the case of GGCCGGCAUGGUCCCAGCCUCCUCGCUGGCCCCGGCUGGGGAACAUUCCGAGGGGACCGUCCCCUCGGUAAUGGCGAAUGGGACCCA, the self-cleavage is reported as 0.269.
With GGCCGGCAUGGUCCCAGCCUCCUCGCUGGCCCCGGCUGGGCAACAUUCCGAGGGGACCGUCCACUCGGUAAUGGCGAAUGGGACCCA the self-cleavage was 0.344.
GGCCGGCAUGGUCCCAGCCUCCUCGCUGGCCCCGGCUGGGCAACAUUCCGAGGGGACCGUCCUCUCGGUAAUGGCGAAUGGGACCCA showed a self-cleavage of 0.369.
With GGCCGGCAUGGUCCCAGCCUCCUCGCUGGCACCGGCUUGGCAACAUUCCGAGGGGACCGUCCCCUCGGUAAUGGCGAAUGGGACCCA the self-cleavage was 0.0702.
GGCCGGCAUGGUCCCAGCCUCCUCGCUGGCACCGGCUAGGCAACAUUCCGAGGGGACCGUCCCCUCGGUAAUGGCGAAUGGGACCCA showed a self-cleavage of 0.14.
With GGCCGGCAUGGUCCCAGCCUCCUCGCUGGCCCCGGCUGGGCAACAUUCCGAGGGGACCGUCCCCUCGGUAAUGGCGAAUGGGACCGA the self-cleavage was 0.188.
Variant GGCCGGCAUGGUCCCAGCCUCCUCGCUGGCACCGGCUGGGCAACAUUCCGAGGGGACCGUCCCCUAGGUAAUGGCGAAUGGGACCCA has a self-cleavage of 0.546.
With GGCCGGCAUGGUCCCAGCCUCCUCGCUGGCACCGGCUGGGCAACAUUCCGAGGGGACCGUCCCCUGGGUAAUGGCGAAUGGGACCCA the self-cleavage was 0.379.
With GGCCGGCAUGGUCCCAGCCUCCUCGCUGGCACCGGCUGGGCAACAUUCCGAGGGGACCGUCCCCUCGGUAAUGGAGAAUGGGACCCA the self-cleavage was 0.136.
GGCCGGCAUGGUCCCAGCCUCCUCGCUGGCACCGGCUGGGCAACAUUCCGAGGGGACCGUCCCCUCGGUAAUGGGGAAUGGGACCCA gave a self-cleavage of 0.086.
Variant GGCCGGCAUGGUCCCAGCCUCCUCGCUGGCCCCUGCUGGGCAACAUUCCGAGGGGACCGUCCCCUCGGUAAUGGCGAAUGGGACCCA has a self-cleavage of 0.191.
GGCCGGCAUGGUCCCAGCCUCCUCGCUGGCCCCGGCUGGGCAACAUUCCGAGGGGACCGUGCCCUCGGUAAUGGCGAAUGGGACCCA gave a self-cleavage of 0.259.
Variant GGCCGGCAUGGUCCCAGCCUCCUCGCUGGCACCGGCUGGGCAACAUUCCCAGGGGACCGUCCCCUCGGUAAUGGCGAAUGGGACCCA has a self-cleavage of 0.521.
Work on GGCCGGCAUGGUCCCAGCCUCCUCGCUGGCACCGGCUGGGCAACAUGCCGAGGGGACCGUCCCCUCGGUAAUGGCGAAUGGGACCCA yielded a self-cleavage of 0.192.
Variant GGCCGGCAUGGUCCCAGCCUCCUCGCUGGCCCCGGCUGGGCAACAUUCCGAGGGGACCGUCCCCUCGGUAAUGGCGAAUGGGACCCU has a self-cleavage of 0.328.
In the case of GGCCGGCAUGGUCCCAGCCUCCUCGCUGGCCCCGGCUGGGCAACAUUCUGAGGGGACCGUCCCCUCGGUAAUGGCGAAUGGGACCCA, the self-cleavage is reported as 0.339.
GGCCGGCAUGGUCCCAGCCUCCUCGCUGGCCCCGGCUGGGCAACAUUCGGAGGGGACCGUCCCCUCGGUAAUGGCGAAUGGGACCCA gave a self-cleavage of 0.253.
